Reference: patent publication US20230285583A1, “LIQUID FORMULATION OF LONG-ACTING CONJUGATE OF GLUCAGON, GLP-1, AND GIP TRIGONAL AGONIST” (HANMI PHARM, CO., LTD., priority 2020, published 2023)
Bridge positions count the residues as written; N and C are the ends. Square brackets hold non-standard residues; d marks the D form. Ends that are not written are not given here. * marks the point of attachment. Acetyl(2-(4-imidazolyl)) = O=C(Cc1c[nH]cn1)*; Aib = CC(C)(N)C(=O)O

T1: human GIP receptor (human, UniProt P48546 22-466)
T1 sequence (looked up): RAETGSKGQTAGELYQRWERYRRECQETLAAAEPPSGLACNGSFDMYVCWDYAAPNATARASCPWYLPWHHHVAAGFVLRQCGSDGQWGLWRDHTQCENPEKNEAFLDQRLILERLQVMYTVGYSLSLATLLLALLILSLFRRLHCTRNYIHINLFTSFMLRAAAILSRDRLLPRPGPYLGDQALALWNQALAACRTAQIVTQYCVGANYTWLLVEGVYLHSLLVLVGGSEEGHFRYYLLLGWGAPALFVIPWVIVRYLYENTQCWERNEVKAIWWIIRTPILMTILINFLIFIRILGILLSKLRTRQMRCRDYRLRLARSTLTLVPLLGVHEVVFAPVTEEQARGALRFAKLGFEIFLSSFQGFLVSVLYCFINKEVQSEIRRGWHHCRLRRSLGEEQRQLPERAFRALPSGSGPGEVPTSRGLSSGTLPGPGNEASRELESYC

B1: trigonal agonist of SEQ ID NO: 37 (peptide)
peptide: [Acetyl(2-(4-imidazolyl))][Aib]QGTFTSDYSKYLDEKRQKEFVNWLLAQC
modifications: bridge 16-20; not fully specified (bridges)
B2: trigonal agonist of SEQ ID NO: 10 (peptide)
peptide: Y[Aib]QGTFTSDYSKYLDEKRAKEFVQWLLDHHCSSGQPPPS
modifications: bridge 16-20; not fully specified (bridges)
B3: trigonal agonist of SEQ ID NO: 41 (peptide)
peptide: Y[Aib]QGTFTSDYSKYLDEKRAKEFVQWLLDCHPSSGQPPPS
modifications: bridge 16-20; not fully specified (bridges); ends not checked
B4: trigonal agonist of SEQ ID NO: 36 (peptide)
peptide: {Acetyl(2-(4-imidazolyl))}-[Aib]EGTFTSDYSIAMDEIHQKDFVNWLLAQC
modifications: lactam 15-19
B5: trigonal agonist of SEQ ID NO: 39 (peptide)
peptide: [Acetyl(2-(4-imidazolyl))][Aib]QGTFTSDYSKYLDEKRQKEFVNWLLAQKC
modifications: bridge 16-20; not fully specified (bridges)
B6: trigonal agonist of SEQ ID NO: 45 (peptide)
peptide: Y[Aib]QGTFTSDYSKALDEKAAKEFVNWLLDQHPSSGQPPPSC
modifications: bridge 16-20; not fully specified (bridges)
B7: trigonal agonist of SEQ ID NO: 9 (peptide)
peptide: Y[Aib]QGTFTSDYSKYLDEKRAKEFVQWLLDHHPSSGQPPPSC
modifications: lactam 16-20
B8: trigonal agonist of SEQ ID NO: 38 (peptide)
peptide: [Acetyl(2-(4-imidazolyl))][Aib]EGTFTSDYSIAMDEIHQKDFVDWLLAEKC
modifications: bridge 16-20; not fully specified (bridges)
B9: trigonal agonist of SEQ ID NO: 7 (peptide)
peptide: H[Aib]QGTFTSDYSKYLCEKRQKEFVQWLLNGGPSSGAPPPSG
modifications: bridge 16-20; not fully specified (bridges)
B10: trigonal agonist of SEQ ID NO: 35 (peptide)
peptide: H[Aib]EGTFTSDYSIAMDEIHQKDFVDWLLAEKC
modifications: bridge 16-20; not fully specified (bridges)
B11: trigonal agonist of SEQ ID NO: 40 (peptide)
peptide: Y[Aib]QGTFTSDYSKYLDEKRAKEFVQWLLDHCPSSGQPPPS
modifications: bridge 16-20; not fully specified (bridges); ends not checked
B12: trigonal agonist of SEQ ID NO: 34 (peptide)
peptide: H[Aib]EGTFTSDYSIAMDEIHQKDFVNWLLAQKC
modifications: lactam 16-20
B13: trigonal agonist of SEQ ID NO: 8 (peptide)
peptide: H[Aib]QGTFTSDYSKYLDECRQKEFVQWLLNGGPSSGAPPPSG
modifications: bridge 16-20; not fully specified (bridges)
B14: trigonal agonist of SEQ ID NO: 43 (peptide)
peptide: Y[Aib]QGTFTSDYSKALDEKAAKDFVNWLLDHHPSSGQPPPSC
modifications: bridge 16-20; not fully specified (bridges)
B15: trigonal agonist of SEQ ID NO: 42 (peptide)
peptide: Y[Aib]QGTFTSDYSKALDEKAAKEFVNWLLDHHPSSGQPPPSC
modifications: bridge 16-20; not fully specified (bridges)
B16: trigonal agonist of SEQ ID NO: 1 (peptide)
peptide: Y[Aib]QGTFTSDYSKYLDECRAKEFVQWLLDHHPSSGQPPPS
modifications: bridge 16-20; not fully specified (bridges)
B17: trigonal agonist of SEQ ID NO: 6 (peptide)
peptide: H[Aib]QGTFTSDYSKYLDEKRQKEFVNWLLAQKC
modifications: bridge 16-20; not fully specified (bridges)
B18: trigonal agonist of SEQ ID NO: 4 (peptide)
peptide: H[Aib]QGTFTSDYSKYLDEKACKEFVQWLLAQ
modifications: bridge 16-20; not fully specified (bridges)
B19: trigonal agonist of SEQ ID NO: 44 (peptide)
peptide: Y[Aib]QGTFTSDYSKALDEKAAKEFVQWLLDQHPSSGQPPPSC
modifications: bridge 16-20; not fully specified (bridges)
B20: trigonal agonist of SEQ ID NO: 5 (peptide)
peptide: H[Aib]QGTFTSDYSKYLDEKACKDFVQWLLDGGPSSGAPPPS
modifications: lactam 16-20
B21: trigonal agonist of SEQ ID NO: 46 (peptide)
peptide: Y[Aib]QGTFTSDYSKALDEKAAKDFVNWLLDQHPSSGQPPPSC
modifications: bridge 16-20; not fully specified (bridges)

Key:
Experiment in all cases: cell-based or functional assay
human GIP receptor = biological target: T1, human GIP receptor
human GCG receptor = human GCG receptor (human, UniProt P47871 26-477)
human GCG receptor, sequence (P47871 26-477): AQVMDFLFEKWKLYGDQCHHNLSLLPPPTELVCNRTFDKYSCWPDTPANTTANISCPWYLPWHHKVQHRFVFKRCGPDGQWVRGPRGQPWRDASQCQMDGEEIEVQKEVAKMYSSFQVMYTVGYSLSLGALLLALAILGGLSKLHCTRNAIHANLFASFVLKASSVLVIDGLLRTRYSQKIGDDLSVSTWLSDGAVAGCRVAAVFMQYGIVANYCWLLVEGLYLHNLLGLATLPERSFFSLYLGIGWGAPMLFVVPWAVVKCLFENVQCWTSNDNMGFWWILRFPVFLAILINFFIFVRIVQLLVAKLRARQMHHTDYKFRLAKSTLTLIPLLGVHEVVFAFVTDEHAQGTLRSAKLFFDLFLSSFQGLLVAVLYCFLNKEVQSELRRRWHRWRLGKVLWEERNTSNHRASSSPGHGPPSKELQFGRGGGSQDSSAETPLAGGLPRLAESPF

human GLP-1 receptor = human GLP-1 receptor (human, UniProt P43220 24-463)

Binder | In Vitro Activity Compared to Native Peptide (%) vs. GIP (relative titer from cAMP EC50) (human GIP receptor) [%] | In Vitro Activity Compared to Native Peptide (%) vs. Glucagon (relative titer from cAMP EC50) (human GCG receptor) [%] | In Vitro Activity Compared to Native Peptide (%) vs. GLP-1 (relative titer from cAMP EC50) (human GLP-1 receptor) [%]
B1 | 0.2 | 0.4 | 28.4
B2 | 3.7 | 88.4 | 12.6
B3 | 2.6 | 62.8 | 10.5
B4 | 0.4 | 1.3 | 47.3
B5 | 0.7 | 0.3 | 5.7
B6 | 40.1 | 13.9 | 23.2
B7 | 7.8 | 206 | 33.9
B8 | 0.3 | 16.8 | 31.9
B9 | 0.2 | 0.39 | 37.4
B10 | 0.1 | 0 | 8.1
B11 | 5.2 | 195 | 34.4
B12 | 1.4 | 4.9 | 41.5
B13 | 2.2 | 6.21 | 236
B14 | 57.7 | 14.9 | 20.9
B15 | 47.1 | 8.2 | 28.1
B16 | 22.7 | 267 | 17.8
B17 | 0.6 | 0.92 | 19.1
B18 | 2.4 | 2.2 | 135
B19 | 118 | 12.7 | 42.2
B20 | 8.8 | 1.7 | 151
B21 | 58 | 29.5 | 23.3
